B1: POU domain, class 4, transcription factor 2, residues 256 to 327; numbered along this chain, Q12837 (parent)
chain: RDLEAFAERFKQRRIKLGVTQADVGSALANLKIPGVGSLSQSTICRFESLTLSHNNMIALKPILQAWLEEAE

Variants of: B1
Assay: abundance fitness (aPCA) (normalised: wild type 0, dead -1); higher = more abundant; growth selection in yeast, the domain comes from the species named
Settings: Homo sapiens

Abundance fitness of substitutions, site by site:
C45: W -0.431, K -0.098, M -0.251, E 0.156, A 0.036, Q 0.119, V -0.004, D -0.135
S53: D 0.043, F -0.882, N -0.605, Y -0.556, K -0.738, C -0.514, H -0.376, G -0.102, A -0.163, E -0.066, L -0.729, V -0.492, M -0.371
G35: H -0.528, A -0.323, Y -0.763, T -0.365, N -0.116, F -0.084, D -0.36, L -0.329, V -0.299, R -0.153, C -0.512, E -0.435, P -0.77, W -0.525, S -0.228, K -0.389
R46: D 0.094, K 0.033, Q 0.122, H -0.118, W -0.567, M -0.12, A -0.027, P -1.01, S 0.076, V -0.899, C -0.059, T -0.531, L -0.22
L52: M -0.324, H -0.729, P -0.887, T -0.683, S -0.849, K -0.163, W -0.952, G -0.679, A -0.822, Q -1.08, F -0.682, N -0.997, D -0.472, E -0.732, R -0.883
H54: N -0.138, G -0.314, M 0.005, A -0.005, E -0.3, D -0.183, I -0.047, L -0.042, Q 0.034, T 0.06, W -0.119, S -0.145, F -0.086, P -0.079, R 0.081
F47: Y -0.53, A -0.278, G -0.834, P -0.897, D -0.82, W -0.836, R -0.864, Q -0.59, I -0.67, T -0.922, S -0.996, C -0.214, V -1.06, M -0.781, N -0.871
P34: R -0.231, S -0.106, K -0.008, H -0.073, G -0.1, W -0.528, M -0.175, Q -0.263, Y -0.515, T -0.275, I -0.402
N56: A -0.041, C 0.146
L39: K -0.141, C -0.168, S -0.304, F -0.181, D -0.413, M -0.01, Q -0.732, R -0.718, G -0.499, P -0.258, W -0.387, N -0.615, Y -0.53, T -0.204
T43: A -0.271, F -0.289, K -0.624, C -0.232, D -0.114, L -0.053, M -0.068, S -0.353, E -0.574, W -0.282, R -0.632, V -0.01, I 0.207, H -0.274, Q -0.452, G -0.792
E48: P -0.889, W -1.09, G -0.594, L -0.93, Q -0.833, S -0.644, V -1.17, A -0.802, H -0.818, R -0.463
G37: F -0.398, M -0.163, T -0.162, L -0.205, Y -0.418, R -0.111, A -0.098, C -0.118, V -0.269, H 0.083, E -0.207, Q -0.015, D -0.198, P -0.2, W -0.68, I -0.587, K -0.209, S 0.028, N -0.309

Reference: the Human Domainome abundance scans (Beltran et al. 2025)
